Test results reported in patent US20200400675A1 (ECS PROGASTRIN, published 2020).

B1: mAb19 (hybridoma 1B3B4F11) (antibody, V domains shown)
VH: DVQLQESGPGLVKPSQSLSLTCTVTGYSITSDYAWNWIRQFPGNKLEWMGYISFSGYTSYNPSLKSRISVTRDTSRNQFFLQLTSVTTEDTATYYCAREVNYGDSYHFDYWGQGTIVTVSS
VL: QLALTQSSSASFSLGASAKLTCTLSSQHRTYTIEWYQQQSLKPPKYVMEVKKDGSHSTGHGIPDRFSGSSSGADRYLSISNIQPEDEAIYICGVGDAIKGQSVFVFGGGTKVTVL
notes: Murine monoclonal antibody
B2: mAb16 (hybridoma 1E9D9B6) (antibody, V domains shown)
VH: QVQLQQSGAELVKPGASVKLSCKASGYTFTSYYMYWVKQRPGQGLEWIGEINPSNGGTNFNEKFKSKATLTVDKSSSTAYMQLSSLTSEDSAVYYCTRGGYYPFDYWGQGTTLTVSS
VL: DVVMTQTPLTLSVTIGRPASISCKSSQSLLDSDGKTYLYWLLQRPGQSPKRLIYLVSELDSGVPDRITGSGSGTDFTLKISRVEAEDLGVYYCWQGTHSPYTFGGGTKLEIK
notes: Murine monoclonal antibody
B3: mAb3 (hybridoma 6B5B11C10) (antibody, V domains shown)
VH: EVQLQQSGTVLARPGASVKMSCKASGYIFTSYWVHWVKQRPGQGLEWIGGFYPGNSDSRYNQKFKGKATLTAVTSASTAYMDLSSLTNEDSAVYFCTRRDSPQYWGQGTTLTVSS
VL: DVLMTQTPLSLPVSLGDQASISCRSSQSIVHSNGNTYLEWYLQKPGQSPKLLIYKVSNRFSGVPDRFSGSGSGTDFTLKISRLEAEDLGVYYCFQGSHVPFTFGGGTKLEIK
notes: Murine monoclonal antibody
B4: mAb13 (hybridoma 2C6C3C7) (antibody, V domains shown)
VH: EVQLVESGGGLVQPGGSLKLSCAASGFIFSSYGMSWVRQSPDRRLELVASINTFGDRTYYPDSVKGRFTISRDNAKNTLYLQMTSLKSEDTAIYYCARGTGTYWGQGTTLTVSS
VL: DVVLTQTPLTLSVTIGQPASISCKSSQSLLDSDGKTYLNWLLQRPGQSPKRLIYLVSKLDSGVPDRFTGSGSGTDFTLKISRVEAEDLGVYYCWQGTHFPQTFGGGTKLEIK
notes: Murine monoclonal antibody
B5: mAb4 (hybridoma 20D2C3G2) (antibody, V domains shown)
VH: QVQLQQSGAELMKPGASVKISCKATGYTFSSSWIEWLKQRPGHGLEWIGEFLPGSGSTDYNEKFKGKATFTADTSSDTAYMLLSSLTSEDSAVYYCATDGNYDWFAYWGQGTLVTVSA
VL: DLVMTQTPLSLPVSLGDQASISCRSSQSLVHSSGVTYLHWYLQKPGQSPKLLIYKVSNRFSGVPDRFSGSGSGTDFTLKISRVEAEDLGVYFCSQSTHVPPTFGSGTKLEIK
notes: Murine monoclonal antibody

The binders below were run against T1, human progastrin (human, UniProt P01350 22-101) (assay: epitope mapping (no details given)).
T1 construct: also called hPG; PG
T1 sequence: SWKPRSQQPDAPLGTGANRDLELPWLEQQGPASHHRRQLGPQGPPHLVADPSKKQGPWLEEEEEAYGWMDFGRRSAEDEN
B1: binds.
B2: binds.
B3: binds.
B4: binds.
B5: binds.
